Measurements taken from patent publication US20260167714A1 (COHERUS BIOSCIENCES, published 2026).

Legend:
[1] = biological target: T1, human ILT4 expressed on cells (human, UniProt Q8N423 22-597); assay: flow cytometry, blockade of PE-HLA-G tetramer binding to ILT4-CHO cells, Experiment 2
T1 construct: whole, on cells; The same entry is used for endogenous ILT4 of human macrophages; also called CHO-S/ILT4 cells; ILT4-CHO cells

[2] = biological target: T2, recombinant human ILT4 (LILRB2) (human, UniProt Q8N423 22-460); assay: SPR, high resolution kinetics, triplicate, LALA antibody
T2 construct: Bought protein (Acro Biosystems or R&D Systems); also called ILTR4

[3] = biological target: T1, human ILT4 expressed on cells; assay: flow cytometry, blockade of PE-HLA-G tetramer binding to ILT4-CHO cells, Experiment 3
[4] = biological target: T2, recombinant human ILT4 (LILRB2); assay: SPR, Biacore 8K, mAb captured on anti-human Fc, LILRB2 at 100 nM; legend: +++ binding (1-2 nM KD)
Description: (§1) SPR was used to determine the specificity of four humanized anti-ILT4 mAbs for binding to LILRB2 and to determine any cross-reactivity with nine other LILRA and LILRB family members. LILR proteins were purchased from Acro Biosystems or R&D Systems, with sequence provided below. The studies were performed with a Biacore 8K instrument using a CM4 sensor chip with a running buffer of HBS-P+, 100 μg/mL BSA. Anti-human Fc specific capture surfaces were prepared using standard amine coupling chemistry. MAb was captured to flow cell 2 with flow cell 1 serving as the reference flow cell. Each of the nine family members and LILRB2 were injected at 100 nM at 30 μL/min for 90 sec with 240 sec of dissociation. […] All sensorgrams were doubled-referenced during processing of the data.

[5] = biological target: T2, recombinant human ILT4 (LILRB2); assay: SPR, high resolution kinetics; reference Hz156
[6] = biological target: T1, human ILT4 expressed on cells; assay: flow based HLA-G blocking assay
[7] = biological target: T2, recombinant human ILT4 (LILRB2); assay: KinExA, solution equilibrium, n-curve analysis
Description: Kinetic Exclusion Assay (KinExA®) was performed to measure the equilibrium binding affinity and kinetics between human ILT4 and four humanized LALA-Fc modified antibodies in solution. For affinity analysis, the equilibrium dissociation constant, KD, was experimentally determined and reflects the strength of the binding interaction. The rate of association, kₒₙ, was also experimentally determined, while the rate of dissociation, koff, is calculated based on the following equation: koff=KD×kₒₙ
The binding affinity (KD), association (kₒₙ), and dissociation rate constants (koff) were measured for 4 different Humanized LALA IgG antibodies to ILT4 using KinExA. An n-curve analysis of at least two different curves, run at two different CBP concentrations, was used to determine the KD of the interactions The ILT4 was used as the concentration reference for all curves. All of the binding systems have low error and well defined 95% confidence intervals giving confidence to the measurements: […]

[8] = biological target: T2, recombinant human ILT4 (LILRB2); assay: SPR, high resolution kinetics, triplicate, LALA antibody; 95% CI in parentheses
[9] = biological target: T2, recombinant human ILT4 (LILRB2); assay: SPR, Biacore T200, mAb captured on anti-Fc, ILT4 injected, medium resolution, 25 C
How it was run: (§2)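 Mouse, chimeric or humanized mAbs captured on anti-Fc surfaces (CM4 chip); ILT4 injected at 101 to 0.79 nM, 2-fold series, 90 s association, 1200 s dissociation. Run at 25° C in HBS-P+ pH 7.4 with 100 μg/ml BSA; double-referenced global 1:1 fit with mass-transport term, KD=koff/kon.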

[10] = biological target: T2, recombinant human ILT4 (LILRB2); assay: SPR, Biacore 8K, mAb captured on anti-human Fc, LILRB2 at 100 nM; legend: ++++ tight binding (<100 pM KD)
Description: as §1

[11] = biological target: T2, recombinant human ILT4 (LILRB2); assay: SPR, Biacore T200, medium resolution; koff held at its limit of 4.27e-5 s^-1
How it was run: as §2

T2 sequence (Q8N423 other isoform, or with tags, fused parts or gaps limits assumed): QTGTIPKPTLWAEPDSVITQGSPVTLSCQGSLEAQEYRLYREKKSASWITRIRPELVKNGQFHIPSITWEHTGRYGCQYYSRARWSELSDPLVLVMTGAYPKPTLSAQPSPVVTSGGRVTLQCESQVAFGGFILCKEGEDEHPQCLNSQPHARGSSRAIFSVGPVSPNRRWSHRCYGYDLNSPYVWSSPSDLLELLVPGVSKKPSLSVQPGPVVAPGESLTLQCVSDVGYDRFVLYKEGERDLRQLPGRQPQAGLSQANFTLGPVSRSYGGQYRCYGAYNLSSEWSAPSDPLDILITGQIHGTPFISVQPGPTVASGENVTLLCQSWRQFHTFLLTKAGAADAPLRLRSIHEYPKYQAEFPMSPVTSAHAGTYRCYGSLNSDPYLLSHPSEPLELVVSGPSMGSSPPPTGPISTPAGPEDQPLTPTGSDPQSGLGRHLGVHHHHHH
T1 sequence (Q8N423 22-597): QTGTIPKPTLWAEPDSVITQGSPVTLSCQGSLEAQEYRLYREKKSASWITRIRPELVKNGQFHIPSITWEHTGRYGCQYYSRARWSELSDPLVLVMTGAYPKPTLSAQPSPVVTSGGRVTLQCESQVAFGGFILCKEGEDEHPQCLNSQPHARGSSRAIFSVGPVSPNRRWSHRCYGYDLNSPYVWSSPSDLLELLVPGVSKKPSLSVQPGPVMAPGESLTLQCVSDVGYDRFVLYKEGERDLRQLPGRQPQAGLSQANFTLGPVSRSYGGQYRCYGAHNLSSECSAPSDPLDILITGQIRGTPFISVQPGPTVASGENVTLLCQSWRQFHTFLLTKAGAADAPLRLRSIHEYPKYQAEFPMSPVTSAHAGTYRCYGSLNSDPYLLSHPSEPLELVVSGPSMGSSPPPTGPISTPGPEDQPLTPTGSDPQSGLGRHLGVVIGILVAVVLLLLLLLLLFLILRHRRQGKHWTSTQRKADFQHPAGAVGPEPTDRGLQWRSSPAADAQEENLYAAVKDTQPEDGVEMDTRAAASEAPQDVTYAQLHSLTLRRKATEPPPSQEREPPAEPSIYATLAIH

| Binder | IC50 [1] [µg/mL] | Kd [2] [nM] | koff [2] [s⁻¹] | IC50 [3] [µg/mL] | KD [4] [nM] | fold faster off-rate than Hz156 [5] [fold] | IC50 [6] [µg/mL] | Kd [7] [nM] | kon [8] [M⁻¹ s⁻¹] | Kd [9] [nM] | koff [9] [s⁻¹] | kon [9] [M⁻¹ s⁻¹] | KD [10] [nM] | Kd [11] [nM] | koff [11] [s⁻¹] |
| --- | --- | --- | --- | --- | --- | --- | --- | --- | --- | --- | --- | --- | --- | --- | --- |
| Hz45.01-LALA (antibody, human IgG1, kappa, L234A L235A, V domains shown, Humanized L45S4, human IgG1 L234A/L235A, kappa; also called Humanized 45_01; Hu IgG 45_01 LALA) VH: QVQLVQSGAEVKKPGASVKVSCKASGYTFTDYYMNWVRQAPGQRLEWIGDINPNNGGTSYNQKFKGRATITVDTSASTAYMELSSLRSEDTAVYYCARGGAELTGTYWYFDVWGQGTTVTVSS VL: DIQMTQSPSSLSASVGDRVTITCRASENIYSNLAWYQQKPGKAPKVLVYGATNLADGVPSRFSGSGSGTEYTLTISSLQPEDFATYYCQHFWDSPFTFGGGTKVEIKR | 0.119 | 0.154 | 0.000531 | 0.185 | 1 to 2 | 29 | 0.092 | 0.0851 | 3.45e+06 | 1.27 | 0.000418 | 330000 | – | – | – |
| Hz156.03-LALA (antibody, human IgG1, kappa, L234A L235A, V domains shown, Humanized L156S3, human IgG1 L234A/L235A, kappa) VH: QVQLVQSGAEVKKPGSSVKVSCKASGYTFTDYYMNWVRQAPGQGLEWIARIYPGVYRTHYNEKFKDRVTLTADKSTSTAYMELSSLRSEDTAVYYCARSGYYGGTYEEDAMDYWGQGTTVTVSS VL: DIQMTQSPSSLSASVGDRVTITCRASENIYSNLAWYQQKPGKAPKLLVYAATSLADGVPSRFSGSGSGTDYTLTISSLQPEDFATYYCQNFWDTPYTFGQGTKVEIKR | 0.14 | 0.0057 | 1.83e-05 | 0.233 | – | – | 0.212 | 0.00916 | 3.22e+06 | – | – | 497000 | < 0.1 | ≤ 0.086 | ≤ 4.27e-05 |
